According to paper PMC4135724 (Nature, 2014):

Target: the molecule itself
Assay: SEC

B1: Human E-Syt2 (residues 163-634), fragment comprising the SMP, C2A and C2B domains (domain or fragment, UniProt A0FGR8 191-662, looked up)
chain: DTERAEWLNKTVKHMWPFICQFIEKLFRETIEPAVRGANTHLSTFSFTKVDVGQQPLRINGVKVYTENVDKRQIILDLQISFVGNCEIDLEIKRYFCRAGVKSIQIHGTMRVILEPLIGDMPLVGALSIFFLRKPLLEINWTGLTNLLDVPGLNGLSDTIILDIISNYLVLPNRITVPLVSEVQIAQLRFPVPKGVLRIHFIEAQDLQGKDTYLKGLVKGKSDPYGIIRVGNQIFQSRVIKENLSPKWNEVYEALVYEHPGQELEIELFDEDPDKDDFLGSLMIDLIEVEKERLLDEWFTLDEVPKGKLHLRLEWLTLMPNASNLDKVLTDIKADKDQANDGLSSALLILYLDSARNLPSGKKISSNPNPVVQMSVGHKAQESKIRYKTNEPVWEENFTFFIHNPKRQDLEVEVRDEQHQCSLGNLKVPLSQLLTSEDMTVSQRFQLSNSGPNSTIKMKIALRVLHLEKRER
  stoichiometry N: 2
